{"source": "patent US20030103863A1", "about": "“High pressure sterilising of sensitive active principles” (priority 2000, published 2003)", "key": {"[1]": {"assay": "HPLC chromatography of insulin after high pressure treatment", "format": "physicochemical", "conditions": "4,000, 5,000 and 6,000 bars for 10 minutes, ambient temperature and −20° C.; analyzed at 214 nm", "protocol": "b) Insulin was selected at 40 UI, commercial form, and diluted to {fraction (1/100 )} at pH 2.5. For the measurement, passage is carried out with a flow rate of 1 ml/min in an HPLC (High Pressure Liquid Chromatography) apparatus.\nDifferent specimens were subjected, at ambient temperature and at a negative temperature of −20° C., to:\natmospheric pressure for the standard,\n5,000 bars for 10 minutes, and\nThe specimens, after treatment, are then analyzed at 214 nm in a chromatographic apparatus with automatic injection."}, "[2]": {"assay": "HPLC purity after high pressure treatment", "format": "physicochemical", "conditions": "powder, high pressure treatment at 5,000 bars", "protocol": "Complementary tests were conducted to show the harmlessness of the treatment by high pressure on the fragile elements. In this case, these elements were placed in solution or in the form of powder.\na) The peptide, in this case Gramicidin, is subjected to a high pressure treatment at 5,000 bars, and its purity was also tested by HPLC, the variations remaining less than 1%. The high pressures have no influence on the structure."}}}
{"substance": "insulin", "values": [{"measurement": "modifications or alterations of the structure (HPLC curves vs standard at atmospheric pressure)", "setting": "[1]", "result": "no noticeable modifications or alterations"}]}
{"substance": "gramicidin", "values": [{"measurement": "variations of purity by HPLC", "setting": "[2]", "result": "less than 1%"}]}
